Numbering of substitutions follows the chain as printed.

What is called Kd is the equilibrium constant for the complex coming apart. Low readings indicate a tighter complex, high ones a looser complex. As a reminder, the EC50 is the concentration needed to bring the measured effect to its halfway point.

To fix the notation:
B1: nCoV396 (antibody, V domains shown)
VH: QVQLVESGGGVVQPGRSLRLSCAASGFTFSSYIMHWVRQAPGKGLEWVAVISYDGSNEAYADSVKGRFTISRDNSKNTLYLQMSSLRAEDTGVYYCARETGDYSSSWYDSWGRGTLVTVSS
VL: QLVLTQSPSASASLGASVKLTCTLSSGHSNYAIAWHQQQPEKGPRYLMKVNSDGSHTKGDGIPDRFSGSSSGAERYLTISSLQSEDEADYYCQTWGTGIQVFGGGTKLTVL
B2: nCoV424 (antibody, V domains shown)
VH: QVQLVQSGAEVKKPGASVKLSCKASGYTFSSYYIHWVRQAPGQGLEWLGIINPGGDITAYAQKFQGRVSLTRDTSTSTVYMQLSSLRYEDTAVYYCAREEGDVSTSVFDNWGQGTLVTVSS
VL: B1 VL with V18I, S29R, N30S, E41G, V50L, T57I, I62V, T78S, Y91H, K107R
B3: nCoV416 (antibody, V domains shown)
VH: QVQLVQSGAVLKRPGASVKLSCKASGYIFTSYHIHWVRQAPGQGLEWLGTINPRGDVTAYAQKFQGRVSLTRDTSTTTVYMELSSLRSEDTAIYYCAREHGDVSSSVFDHWGQGTLVSVSS
VL: B1 VL with V18I, Q37K, P44L, T57N, A73P, T78I, E85D, Y91H, G96A, T97S
B4: nCoV433 (antibody, V domains shown)
VH: QVQLVESGGGVVQPGRSLRLSCAASGFTFSNYAMHWVRQAPGKGLEWVTIISYDGTNIYEDSVKGRFTISRDNSKNTLYLQMNSLRAEDTAVYYCAREVFDSSGSWFDYWGQGTLVTVSS
VL: B1 VL with K19R, T23S, S29R, V50L, I62V, L108V
B5: nCoV457 (antibody, V domains shown)
VH: QVQLVESGGGVVQPGRSLRLSCVASGFTFSRYIIHWVRQAPGKGLEWVAVISYDGTAALYADTVKGRFTISRDNSKNTLYLQMNSLRADDTAVYYCARETGEMSTSYFEYWGQGTLVTVSS
VL: B1 VL with G27R, S29N, Y46F, E85D, I99N, L108V
B6: nCoV425 (antibody, V domains shown)
VH: QVQLVESGGGVVQPGRSLRLSCAASGFTFSNYAMHWVRQPPGKGLEWVAIISYEGRTEYADSMKGRFTISRDNSKSAVYLQMNSLRPEDTAVYYCAREVFDISGSWFDYWGQGTLVTVSS
VL: B1 VL with G27R, V50L, Q83H, L108V, L111V
B7: nCoV402 (antibody, V domains shown)
VH: QVQLVESGGGVVQPGGSLRLSCAASGFTFSRFTMHWVRQAPGKGLEWVAIISFNGSDKLYVDSVKGRFTVSRDSSKEMLYLQMSSLRHEDTAVYYCARETEDYTSSYFDYWGQGTLVTVSS
VL: B1 VL with S29N, E41Q, K42T, Y46F, T57V, S67T, A73T, E74G, G96A, T97S
B8: nCoV454 (antibody, V domains shown)
VH: QVQLVESGGGVVQPGGSLRLSCVTSGFTFSNYAMHWVRQAPGKGLEWVAIISYDGSHLYGDSVKGRFTISRDNSKNTLYLEMSSLRNEDTATYYCARETPEVSGSWIDYWGQGALVIVSS
VL: B1 VL with K19N, S25T, S29N, N30S, E41N, V50L, T57D, A73T, I99V
B9: nCoV400 (antibody, V domains shown)
VH: EVQLLESGGGLVQPGGSLRLSCAASGFTFSSYAMSWVRQAPGKGLEWVSVIYSGGSSTYYADSVKGRFTISRDNSKNTLYLQMNSLRAEDTAVYYCAKDHLELSAAGSQINYYYYGMDVWGQGTTVTVSS
VL: SYELTQPPSVSVSPGQTARITCSGDALPKQYAYWYQQKPGQAPVLVIYKDSERPSGIPERFSGSSSGTTVTLTISGVQAEDEADYYCQSADSSGTSHWVFGGGTKLTVL

The first experiment deals with MERS-CoV N蛋白 (MERS-CoV, UniProt K9N4V7 1-411). The experiment is described as follows: SPR (Biacore X100), antibody captured as ligand, MERS-CoV N protein as analyte. A general note: SPR reads the build-up and loss of mass on a sensor chip optically.
Molecule B1 registered a Kd of 7.43 nM.

The target of a further experiment is SARS-CoV N蛋白 (SARS-CoV, UniProt P59595 1-422). The experiment is described as follows: SPR (Biacore X100), antibody captured as ligand, SARS-CoV N protein as analyte.
Take B1: the Kd was determined as 7.44 nM.

A further experiment deals with T1, SARS-CoV-2病毒N蛋白(全长) (SARS-CoV-2, UniProt P0DTC9 1-419).
Test: not given
For the molecule B1, a half-maximal effect (EC50) was put at 3.2 ng/mL.
Turning to B2, the EC50 stood at 11.8 ng/mL.
Regarding B3, the EC50 is 3.3 ng/mL.
Same read-out and setting: to B4 belongs 5.3 ng/mL; to B5, 2.6 ng/mL; to B6, 5.2 ng/mL.
B7: the response was half-maximal at 6.3 ng/mL (EC50).
The same measure, in the same setting: under B8 stands 5 ng/mL; under B9, 1110 ng/mL.

In another experiment the target is T1, SARS-CoV-2病毒N蛋白(全长). The experiment is described as follows: SPR (Biacore X100), antibody captured as ligand, N protein as analyte.
For the molecule B1, the affinity, expressed as Kd, was 1.02 nM.

For the origin of these results see patent CN113234145A (THE FIFTH AFFILIATED HOSPITAL SUN YAT SEN UNIV; ZHUHAI …, dated 2021).
